# Source: US20260275317A1, “CHIMERIC ENDOLYSINS WITH ACTIVITY AGAINST STREPTOCOCCI AND STAPHYLOCOCCI” (UNIVERSITEIT GENT, priority 2023, published 2026)
# Assays:
# [1] = test system: S. uberis, S. aureus, S. agalactiae and S. dysgalactiae; test: 2 h time killing assay in PBS and UHT-milk, relative in vitro scoring; format: cell-based; conditions: 0.25 μM
# Procedure: (§1) Concerning the time killing assay, an overnight bacterial culture was diluted 1:10 for S. uberis, S. agalactiae-& dysgalactiae or 1:100 for S. aureus in PBS or UHT-pasteurized whole cow's milk. A volume of 10 μL thereof was combined with an equal amount of chimeric endolysin in PBS (or only PBS as negative control) in triplicate and incubated in a covered 96-well microtiter plate at 37° C. for 2 h. […] Finally, these fractions were serially diluted 1:10 in PBS. 5 μL of each fraction was spotted on TSA or BHI-agar and incubated overnight at 37° C. The following day, colony forming units (CFU) were counted and converted to CFU/mL to calculate logarithmic reductions in comparison with the negative control. The relative scores were calculated by dividing the observed logarithmic reduction for each endolysin by the maximal reduction observed for that specific condition and strain. Next, this value was divided by the number of conditions and strains tested (i.e., 8=4 bacterial strains×2 conditions (PBS/UHT-milk)). As such, the best performing candidate in each individual assay received a score of 0.125 (=(1/1)/8). […] Turbidity reduction assays were performed by combining 100 μL of overnight grown bacterial cells with an equal volume of purified enzyme at the desired concentration. Bacterial cells were washed with PBS and resuspended in a 1:1 ratio with enzyme to an OD600 of approximately 1.0. Next, the OD600 was measured using a Tecan infinite 200 PRO plate reader (Tecan, Switzerland) every 15 seconds at 37° C., shaking the 96-well plate between each measurement.
# Stationary phase S. uberis 0140J or S. aureus N305 and one randomly chosen clinical isolate of S. uberis, S. aureus, S. agalactiae and S. dysgalactiae were challenged with a final concentration of 0.25 μM endolysin in a 2 h time killing assay (TKA) in both phosphate buffered saline (PBS) and ultra-high temperature pasteurized whole cow's milk (UHT-milk).
# [2] = test system: stationary phase S. uberis; test: Turbidity reduction assay (TRA), S. uberis; format: cell-based, Streptococcus uberis
# Procedure: Concerning the time killing assay, an overnight bacterial culture was diluted 1:10 for S. uberis, S. agalactiae-& dysgalactiae or 1:100 for S. aureus in PBS or UHT-pasteurized whole cow's milk. A volume of 10 μL thereof was combined with an equal amount of chimeric endolysin in PBS (or only PBS as negative control) in triplicate and incubated in a covered 96-well microtiter plate at 37° C. for 2 h. The dose was low (i.e. 0.25 μM), but this was chosen to differentiate between less and better performing variants, consequently allowing a ranking. Finally, these fractions were serially diluted 1:10 in PBS. 5 μL of each fraction was spotted on TSA or BHI-agar and incubated overnight at 37° C. The following day, colony forming units (CFU) were counted and converted to CFU/mL to calculate logarithmic reductions in comparison with the negative control. The relative scores were calculated by dividing the observed logarithmic reduction for each endolysin by the maximal reduction observed for that specific condition and strain. Next, this value was divided by the number of conditions and strains tested (i.e., 8=4 bacterial strains×2 conditions (PBS/UHT-milk)). As such, the best performing candidate in each individual assay received a score of 0.125 (=(1/1)/8). […] Turbidity reduction assays were performed by combining 100 μL of overnight grown bacterial cells with an equal volume of purified enzyme at the desired concentration. Bacterial cells were washed with PBS and resuspended in a 1:1 ratio with enzyme to an OD600 of approximately 1.0. Next, the OD600 was measured using a Tecan infinite 200 PRO plate reader (Tecan, Switzerland) every 15 seconds at 37° C., shaking the 96-well plate between each measurement.
# (§2) Time killing and turbidity reduction assays were performed as previously described in 1.3.1.
# [3] = test system: S. agalactiae; test: Time killing assay (TKA), S. agalactiae; format: cell-based, Streptococcus agalactiae; conditions: 0.3 μM
# Procedure: as §1, with “milk.” for “milk. A volume of 10 μL thereof was combined with an equal amount of chimeric endolysin in PBS (or only PBS as negative control) in triplicate and incubated in a covered 96-well microtiter plate at 37° C. for 2 h.”
# as §2
# Time killing assays were performed as previously described in 1.3.1.
molecule,measurement,setting,value
NC5: chimeric endolysin SEQ ID NO: 17; HIV-1 TAT + PlySs2 CHAP + Ply1081 CW_7 + PlySs9 amidase_3 (protein) MYGRKKRRQRRRGATTVNEALNNVRAQVGSGVSVGNGECYALASWYERMISPDATVGLGAGVGWVSGAIGDTISAKNIGSSYNWQANGWTVSTSGPFKAGQIVTLGATPGNPYGHVVIVEAVDGDRLTILEQNYGGKRYPVRNYYSAASYRQQVVHYITPPGTVAQSAPNLAGAGIDQLVQETLAGKYGNGEQRKAALGSQYQAVMAVINGKATAPKKTVDQLAQEVIQGKHGNGEDRKKSLGPDYDAVQKRVTEILKGSPSGNIPKTPSDAPKSEVVNSSTEPKTEETGANGKATDTKITKGSGKHLVICGHGQGRTGYDPGAVNAKLGITEAGKVRELSKLMSKYSGQQIDFITEQNVYDYRSITSIGKGYDSITELHFNAFNGSAKGTEVLIQSSLEADKEDMAILSLLSRYFQNRGIKKVDWLYNANQAASRGYTYRLVEIAFIDNEQDMAIFENKKEDIAKGLVSAITGVEVKTIVPSPPSSTVGSSGTPSKSIYLVGDSLRVLPHATHYQTGQKIANWVKGRTYKILQVKNVHQSNSKRAYLLDGIKSWVLEQDVEGTTKGHSKYHHHHHH,ranking by cumulative relative in vitro score,[1],overall best performing candidates
same,lysis in comparative TRA versus NC3 and NC8,"[2]; 0.5 μM, S. uberis 0140J",lysed the bacterial cells faster and resulted in a higher reduction of the OD600
same,lysis speed (ΔOD600/min)/μM,"[2]; Clinical S. uberis 1 (Unknown ST and GCC), 0.3 μM",0.06 (ΔOD600/min)/μM
same,ΔOD600,"[2]; Clinical S. uberis 1 (Unknown ST and GCC), 1 h, 0.3 μM",0.42
same,lysis speed (ΔOD600/min)/μM,"[2]; Clinical S. uberis 2 (Unknown ST, GCC 5), 0.3 μM",0.11 (ΔOD600/min)/μM
same,ΔOD600,"[2]; Clinical S. uberis 2 (Unknown ST, GCC 5), 1 h, 0.3 μM",0.38
same,lysis speed (ΔOD600/min)/μM,"[2]; Clinical S. uberis 3 (Unknown ST, GCC 5), 0.3 μM",0.44 (ΔOD600/min)/μM
same,ΔOD600,"[2]; Clinical S. uberis 3 (Unknown ST, GCC 5), 1 h, 0.3 μM",0.62
same,lysis speed (ΔOD600/min)/μM,"[2]; Clinical S. uberis 4 (ST 815, GCC 143), 0.3 μM",0.05 (ΔOD600/min)/μM
same,ΔOD600,"[2]; Clinical S. uberis 4 (ST 815, GCC 143), 1 h, 0.3 μM",0.63
same,lysis speed (ΔOD600/min)/μM,"[2]; Clinical S. uberis 5 (ST 944, GCC 5), 0.3 μM",0.21 (ΔOD600/min)/μM
same,ΔOD600,"[2]; Clinical S. uberis 5 (ST 944, GCC 5), 1 h, 0.3 μM",0.59
same,ΔOD600,"[2]; S. uberis 0140J, 0.3 μM",0.57±0.00
same,"lysis speed (ΔOD600/min)/μM, NC5 pairwise versus NC2","[2]; S. uberis (sub)clinical isolates, 0.3 μM",significantly (p <0.01) faster
same,lysis speed (ΔOD600/min)/μM,"[2]; Subclinical S. uberis 1 (ST 808, GCC 143), 0.3 μM",0.43 (ΔOD600/min)/μM
same,ΔOD600,"[2]; Subclinical S. uberis 1 (ST 808, GCC 143), 1 h, 0.3 μM",0.66
same,lysis speed (ΔOD600/min)/μM,"[2]; Subclinical S. uberis 2 (Unknown ST and GCC), 0.3 μM",0.11 (ΔOD600/min)/μM
same,ΔOD600,"[2]; Subclinical S. uberis 2 (Unknown ST and GCC), 1 h, 0.3 μM",0.65
same,lysis speed (ΔOD600/min)/μM,"[2]; Subclinical S. uberis 3 (Unknown ST, GCC 5), 0.3 μM",0.39 (ΔOD600/min)/μM
same,ΔOD600,"[2]; Subclinical S. uberis 3 (Unknown ST, GCC 5), 1 h, 0.3 μM",0.53
same,lysis speed (ΔOD600/min)/μM,"[2]; Subclinical S. uberis 4 (Unknown ST and GCC), 0.3 μM",0.28 (ΔOD600/min)/μM
same,ΔOD600,"[2]; Subclinical S. uberis 4 (Unknown ST and GCC), 1 h, 0.3 μM",0.42
same,ΔLog10 (CFU/mL),"[3]; S. agalactiae 1, 1 h",1.49 Log10 (CFU/mL)
same,ΔLog10 (CFU/mL),"[3]; S. agalactiae 2, 1 h",1.50 Log10 (CFU/mL)
same,ΔLog10 (CFU/mL),"[3]; S. agalactiae 3, 1 h",0.00 Log10 (CFU/mL)
same,log10 reduction,"[3]; mastitis-derived S. agalactiae, versus PBS",1.50±0.12 log10
same,"Δ log10, reductions up to",[3]; three clinical S. agalactiae isolates,≤ 1.50±0.02 log10
